± gives the uncertainty stated by the source.
Assay: self-splicing fitness, log relative to wild type (ln ratio); higher = more splicing; Tetrahymena group I intron in knt gene, E. coli kanamycin selection, DiMSum; sequences stand for … in CUCUCU…GGAGGGAAAAGUUAUCAGGCAUGCACCUGGUAGCUAGUCUUUAAACCAAUAGAUUGCAUCGGUUUAAAAGGCAAGACCGUCAAAUUGCGGGAAAGGGGUCAACAGCCGUUCAGUACCAAGUCUCAGGGGAAACUUUGAGAUGGCCUUGCAAAGGGUAUGGUAAUAAGCUGACGGACAUGGUCCUAACCACGCAGCCAAGUCCUAAGUCAACAGAUCUUCUGUUGAUAUGGAUGCAGUUCACAGACUAAAUGUCGGUCGGGGAAGAUGUAUUCUUCUCAUAAGAUAUAGUCGGACCUCUCCUUAAUGGGAGCUAGCGGAUGAAGUGAUGCAACACUGGAGCCGCUGGGAACUAAUUUGUAUGCGAAAGUAUAUUGAUUAGUUUUGGAGUACUCGUGGUCG
Procedure, shortened: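 Fitness was computed with DiMSum as the error-weighted combination of replicate fold changes, kanamycin versus none, each normalised to wild type. The library randomised all eight intron nucleotides of the P1ex region, with the intron placed in the knt kanamycin-resistance gene on pET-22b(+) in E. coli BL21(DE3). Six replicate transformations were grown overnight at 37°C or 30°C on LB agar with or without 25 μg/mL kanamycin, plus 100 μg/mL carbenicillin, 50 μM IPTG and 0.2% rhamnose. Pooled colonies were amplicon-sequenced on an Illumina HiSeq 2500.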

Row | Sequence | self-splicing fitness (ln) (30 °C) | self-splicing fitness (ln) (37 °C)
1 | GUUAAGCAAUAUUACGAUGU | -1.16 ± 0.088 | 0.226 ± 0.13
2 | GUUAAGCAAUAUUACGAUUA | -1.04 ± 0.13 | -0.324 ± 0.11
3 | GUUAAGCAAUAUUACGAUUU | -0.759 ± 0.09 | -0.00651 ± 0.14
4 | GUUAAGCAAUAUUACGCAAG | -1.84 ± 0.18 | -1.71 ± 0.23
5 | GUUAAGCAAUAUUACGCAUG | -1.11 ± 0.083 | -0.624 ± 0.11
6 | GUUAAGCAAUAUUACGCAUU | -2.16 ± 0.18 | -1.1 ± 0.16
7 | GUUAAGCAAUAUUACGCCCG | -0.342 ± 0.39 | -1.05 ± 0.45
8 | GUUAAGCAAUAUUACGCGCC | -2.44 ± 0.2 | -1.56 ± 0.16
9 | GUUAAGCAAUAUUACGCGCU | -2 ± 0.16 | -1.63 ± 0.2
10 | GUUAAGCAAUAUUACGCGGG | -2.2 ± 0.12 | -1.69 ± 0.16
11 | GUUAAGCAAUAUUACGGAAG | -3.2 ± 0.19 | -1.6 ± 0.2
12 | GUUAAGCAAUAUUACGGCGG | -2.8 ± 0.21 | -2.29 ± 0.33
13 | GUUAAGCAAUAUUACGUAUC | -1.79 ± 0.1 | -1.46 ± 0.14
14 | GUUAAGCAAUAUUACGUAUU | -3.27 ± 0.19 | -0.277 ± 0.16
15 | GUUAAGCAAUAUUACGUCGA | -1.79 ± 0.11 | -1.02 ± 0.11
16 | GUUAAGCAAUAUUACGUGAU | -1.94 ± 0.067 | -1.44 ± 0.082
17 | GUUAAGCAAUAUUACGUGCC | -1.39 ± 0.25 | -0.253 ± 0.36
18 | GUUAAGCAAUAUUACGUGCG | -0.344 ± 0.12 | -1.15 ± 0.12
19 | GUUAAGCAAUAUUACGUGGA | -2.84 ± 0.15 | -2.31 ± 0.15
20 | GUUAAGCAAUAUUACGUGGG | -2.87 ± 0.13 | -2.65 ± 0.17
21 | GUUAAGCAAUAUUACGUGUC | -2.09 ± 0.089 | -0.788 ± 0.11
22 | GUUAAGCAAUAUUACGUUCU | -1.03 ± 0.085 | -0.445 ± 0.091
23 | GUUAAGCAAUAUUACGUUGG | -2.45 ± 0.14 | -1.19 ± 0.15
24 | GUUCAGCAAUAUUACGAACU | -3.89 ± 0.14 | -2.56 ± 0.16
25 | GUUCAGCAAUAUUACGACCU | 0.353 ± 0.16 | 0.115 ± 0.17

Row | Sequence | self-splicing fitness (ln) (30 °C) | self-splicing fitness (ln) (37 °C)
26 | GUUCAGCAAUAUUACGACUU | -0.0631 ± 0.073 | -0.409 ± 0.079
27 | GUUCAGCAAUAUUACGAGCA | – | -1.75 ± 0.3
28 | GUUCAGCAAUAUUACGAUAC | -0.948 ± 0.078 | -0.47 ± 0.13
29 | GUUCAGCAAUAUUACGAUCU | -0.337 ± 0.095 | 0.0505 ± 0.12
30 | GUUCAGCAAUAUUACGCCCU | -0.106 ± 0.16 | 0.232 ± 0.19
31 | GUUCAGCAAUAUUACGCUGC | – | -1.76 ± 0.4
32 | GUUCAGCAAUAUUACGGAAG | -0.667 ± 0.088 | 0.566 ± 0.12
33 | GUUCAGCAAUAUUACGGCAG | -2.82 ± 0.28 | -1.82 ± 0.31
34 | GUUCAGCAAUAUUACGGUAG | -2.08 ± 0.078 | -0.531 ± 0.093
35 | GUUCAGCAAUAUUACGGUGG | -2.39 ± 0.18 | -1.96 ± 0.19
36 | GUUCAGCAAUAUUACGUAAG | -0.609 ± 0.061 | 0.5 ± 0.083
37 | GUUCAGCAAUAUUACGUAAU | 0.434 ± 0.088 | 0.484 ± 0.098
38 | GUUCAGCAAUAUUACGUACU | -1.24 ± 0.1 | 0.162 ± 0.13
39 | GUUCAGCAAUAUUACGUCCU | -0.606 ± 0.14 | 0.279 ± 0.17
40 | GUUCAGCAAUAUUACGUGAG | -0.139 ± 0.044 | -0.408 ± 0.062
41 | GUUCAGCAAUAUUACGUUAA | -1.02 ± 0.11 | -0.264 ± 0.12
42 | GUUGAGCAAUAUUACGAAAC | -1.97 ± 0.37 | –
43 | GUUGAGCAAUAUUACGAAAU | -3.35 ± 0.44 | -0.897 ± 0.27
44 | GUUGAGCAAUAUUACGAACA | -2.67 ± 0.4 | -1.69 ± 0.32
45 | GUUGAGCAAUAUUACGAAUG | – | -1.68 ± 0.44
46 | GUUGAGCAAUAUUACGAUAG | – | -3.04 ± 0.31
47 | GUUGAGCAAUAUUACGAUCA | -2.74 ± 0.37 | 0.523 ± 0.28
48 | GUUGAGCAAUAUUACGAUCU | -0.691 ± 0.093 | -1.12 ± 0.11
49 | GUUGAGCAAUAUUACGCAGU | – | -1.25 ± 0.4
50 | GUUGAGCAAUAUUACGCGGA | – | -0.744 ± 0.35

Row | Sequence | self-splicing fitness (ln) (30 °C) | self-splicing fitness (ln) (37 °C)
51 | GUUGAGCAAUAUUACGCGUU | -4.25 ± 0.46 | -2.15 ± 0.28
52 | GUUGAGCAAUAUUACGGAUU | -2.6 ± 0.34 | -1.56 ± 0.21
53 | GUUGAGCAAUAUUACGGCAA | -1.78 ± 0.42 | -0.283 ± 0.48
54 | GUUGAGCAAUAUUACGGGAA | -3.4 ± 0.23 | -2.39 ± 0.23
55 | GUUGAGCAAUAUUACGUAAU | -1.76 ± 0.093 | -0.913 ± 0.12
56 | GUUGAGCAAUAUUACGUAUA | -2.17 ± 0.29 | –
57 | GUUGAGCAAUAUUACGUCCA | -2.21 ± 0.34 | –
58 | GUUGAGCAAUAUUACGUCGG | -3.61 ± 0.39 | -1.61 ± 0.27
59 | GUUGAGCAAUAUUACGUGAU | -2.14 ± 0.19 | -1.6 ± 0.27
60 | GUUGAGCAAUAUUACGUGUA | -3 ± 0.21 | –
61 | GUUGAGCAAUAUUACGUUCU | -1.82 ± 0.14 | -1.2 ± 0.13
62 | GUUGAGCAAUAUUACGUUUC | -2.09 ± 0.2 | -3.1 ± 0.34
63 | GUUUAGCAAUAUUACGAGAC | -3.35 ± 0.49 | -2.08 ± 0.32
64 | GUUUAGCAAUAUUACGAGCC | -3.21 ± 0.21 | -1.56 ± 0.2
65 | GUUUAGCAAUAUUACGAGGG | -3.76 ± 0.36 | -2.73 ± 0.34
66 | GUUUAGCAAUAUUACGAUAU | -1.18 ± 0.14 | -0.528 ± 0.16
67 | GUUUAGCAAUAUUACGAUCU | -0.663 ± 0.12 | -0.195 ± 0.18
68 | GUUUAGCAAUAUUACGCUCA | 0.0718 ± 0.14 | 0.432 ± 0.2
69 | GUUUAGCAAUAUUACGCUGG | -2.55 ± 0.25 | -0.944 ± 0.26
70 | GUUUAGCAAUAUUACGGAAC | -2.74 ± 0.39 | –
71 | GUUUAGCAAUAUUACGGAUA | -2.77 ± 0.27 | -1.37 ± 0.19
72 | GUUUAGCAAUAUUACGGAUC | -1.18 ± 0.11 | 0.125 ± 0.12
73 | GUUUAGCAAUAUUACGGCCG | -2.4 ± 0.18 | -0.926 ± 0.21
74 | GUUUAGCAAUAUUACGGCGC | 0.141 ± 0.16 | 0.337 ± 0.17
75 | GUUUAGCAAUAUUACGGCGU | -0.507 ± 0.094 | -0.0237 ± 0.12

Row | Sequence | self-splicing fitness (ln) (30 °C) | self-splicing fitness (ln) (37 °C)
76 | GUUUAGCAAUAUUACGGUAA | -1.65 ± 0.18 | -1.24 ± 0.14
77 | GUUUAGCAAUAUUACGGUCC | -0.925 ± 0.11 | -0.109 ± 0.12
78 | GUUUAGCAAUAUUACGGUUG | -3.13 ± 0.36 | -1.47 ± 0.28
79 | GUUUAGCAAUAUUACGUAAA | -2.64 ± 0.18 | -0.672 ± 0.18
80 | GUUUAGCAAUAUUACGUACC | -1.45 ± 0.48 | –
81 | GUUUAGCAAUAUUACGUAUA | -2.12 ± 0.16 | -1.41 ± 0.22
82 | GUUUAGCAAUAUUACGUCUA | -1.25 ± 0.14 | -0.618 ± 0.13
83 | GUUUAGCAAUAUUACGUUCC | -0.783 ± 0.26 | –
84 | GUUUAGCAAUAUUACGUUCG | -1.61 ± 0.13 | -0.589 ± 0.14
85 | GUUUAGCAAUAUUACGUUUG | -3.92 ± 0.33 | -1.45 ± 0.21
86 | UAAAAGCAAUAUUACGACCU | -0.4 ± 0.085 | 0.0792 ± 0.098
87 | UAAAAGCAAUAUUACGACUC | -1.22 ± 0.12 | -0.668 ± 0.18
88 | UAAAAGCAAUAUUACGACUU | -0.473 ± 0.098 | -0.07 ± 0.15
89 | UAAAAGCAAUAUUACGAUAA | -0.739 ± 0.077 | -0.348 ± 0.1
90 | UAAAAGCAAUAUUACGCAGC | – | -2.47 ± 0.39
91 | UAAAAGCAAUAUUACGCCAA | -2.34 ± 0.22 | -1.63 ± 0.18
92 | UAAAAGCAAUAUUACGCCAU | -3.62 ± 0.26 | -2.82 ± 0.3
93 | UAAAAGCAAUAUUACGCGAA | -2.23 ± 0.12 | -0.719 ± 0.12
94 | UAAAAGCAAUAUUACGCGAU | -3.3 ± 0.17 | -2.51 ± 0.2
95 | UAAAAGCAAUAUUACGCGGC | -3.63 ± 0.47 | -2.1 ± 0.31
96 | UAAAAGCAAUAUUACGCGUU | -2.85 ± 0.13 | -1.14 ± 0.13
97 | UAAAAGCAAUAUUACGCUAG | -1.09 ± 0.07 | -0.327 ± 0.091
98 | UAAAAGCAAUAUUACGCUCC | -2.04 ± 0.46 | -0.325 ± 0.48
99 | UAAAAGCAAUAUUACGGAAU | -3.12 ± 0.17 | -2.18 ± 0.2
